Measurements taken from paper PMC11805909, “Structural basis of inhibition of human NaV1.8 by the tarantula venom peptide Protoxin-I” (Nature Communications, 2025).

Target: T1, human NaV1.8 α-subunit (human, UniProt Q9Y5Y9 1-1956, M1713V, N-linked glycosylation modelled at Asn 312, 819, 1312, 1328 and 1336; further sites N284 and N288)
T1 construct: a TEV protease site stands between the N-terminal tags and the channel; No TEV cleavage is described in the purification, so the N-terminal tags were probably still on the protein on the grids; VSDI was not resolved in the maps; also called hNaV1.8; apo-hNaV1.8; source: HEK293 (FreeStyle 293-F), transiently co-transfected with β4; not shown: FLAG, N-terminal, kept
Assay: cryo-EM structure; 45 µM ProTx-I incubated 30 min on ice with purified hNaV1.8 in GDN micelles (150 mM NaCl, 25 mM HEPES pH 7.5, 0.006% GDN); excess peptide removed on a 100 kDa MWCO filter; monolayer graphene grids
Details: both partners purified

B1: Protoxin-I (peptide)
peptide: ECRYWLGGCSAGQTCCKHLVCSRRHGWCVWDGTFS
notes: modelled from the NMR ensemble PDB 2M9L; printed residue numbers (R3, W5, L6, S22, R23, W27, V29, W30, D31, G32, F34) count on the peptide; Disulfide-rich (ICK framework); also called ProTx-I; source: bought: Smartox Biotechnology
binding result: binds
